In the Human Domainome abundance scans (Beltran et al. 2025):
± gives the uncertainty stated by the source.

B1: Membrane-associated guanylate kinase, WW and PDZ domain-containing protein 1, residues 352 to 401; numbered along this chain, Q96QZ7 (parent)
chain: TEELDSELELPAGWEKIEDPVYGIYYVDHINRKTQYENPVLEAKRKKQLE

Variants of: B1
Test: abundance fitness (aPCA) (normalised: wild type 0, dead -1); higher = more abundant; growth selection in yeast, the domain comes from the species named
Conditions: Homo sapiens
With I24H the abundance fitness was -0.64 ± 0.22.
With I24S the abundance fitness was -0.144 ± 0.074.
In the case of I24W, the abundance fitness is reported as -0.344 ± 0.07.
I24P gave an abundance fitness of -0.057 ± 0.055.
Work on I24T yielded an abundance fitness of 0.039 ± 0.047.
I24R gave an abundance fitness of -0.203 ± 0.042.
Variant I24F has an abundance fitness of 0.015 ± 0.45.
For I24C, the abundance fitness was -0.22 ± 0.065.
In the case of I24G, the abundance fitness is reported as -0.208 ± 0.06.
For I24A, the abundance fitness was -0.323 ± 0.07.
Variant I24Y has an abundance fitness of -0.569 ± 0.14.
Work on I24K yielded an abundance fitness of -0.238 ± 0.097.
I24V gave an abundance fitness of -0.066 ± 0.06.
I24D showed an abundance fitness of -0.387 ± 0.16.
With I24L the abundance fitness was -0.223 ± 0.059.
I24Q gave an abundance fitness of -0.225 ± 0.1.
Work on G13Q yielded an abundance fitness of -0.282 ± 0.048.
With G13K the abundance fitness was -0.368 ± 0.05.
G13Y gave an abundance fitness of -0.183 ± 0.066.
G13C showed an abundance fitness of -0.339 ± 0.089.
In the case of G13P, the abundance fitness is reported as -0.41 ± 0.047.
With G13D the abundance fitness was -0.525 ± 0.12.
In the case of G13I, the abundance fitness is reported as -0.63 ± 0.084.
With G13T the abundance fitness was -0.898 ± 0.15.
In the case of G13E, the abundance fitness is reported as -0.425 ± 0.049.
G13R gave an abundance fitness of -0.59 ± 0.049.
With G13A the abundance fitness was -0.458 ± 0.043.
In the case of G13V, the abundance fitness is reported as -0.703 ± 0.066.
In the case of G13H, the abundance fitness is reported as -0.54 ± 0.13.
In the case of G13W, the abundance fitness is reported as -0.428 ± 0.06.
G13M gave an abundance fitness of -0.448 ± 0.057.
Work on Y25M yielded an abundance fitness of -0.033 ± 0.075.
For Y25I, the abundance fitness was -0.053 ± 0.09.
Y25D gave an abundance fitness of -0.333 ± 0.085.
Y25H gave an abundance fitness of -0.192 ± 0.092.
Variant Y25P has an abundance fitness of -0.367 ± 0.077.
Y25F gave an abundance fitness of -0.148 ± 0.07.
Variant Y25A has an abundance fitness of -0.278 ± 0.047.
In the case of Y25V, the abundance fitness is reported as -0.079 ± 0.054.
In the case of Y25Q, the abundance fitness is reported as -0.14 ± 0.073.
Variant Y25N has an abundance fitness of -0.447 ± 0.077.
With Y25K the abundance fitness was 0.007 ± 0.083.
For Y25T, the abundance fitness was -0.266 ± 0.061.
In the case of Y25C, the abundance fitness is reported as -0.251 ± 0.069.
With Y25S the abundance fitness was -0.119 ± 0.044.
Variant Y25G has an abundance fitness of -0.299 ± 0.041.
Y25E showed an abundance fitness of -0.26 ± 0.082.
In the case of Y25W, the abundance fitness is reported as -0.361 ± 0.061.
Work on Y25L yielded an abundance fitness of -0.593 ± 0.053.
In the case of V21K, the abundance fitness is reported as 0.012 ± 0.095.
With V21C the abundance fitness was -0.038 ± 0.058.
In the case of V21R, the abundance fitness is reported as -0.012 ± 0.049.
Variant V21Q has an abundance fitness of -0.008 ± 0.099.
V21N showed an abundance fitness of -0.056 ± 0.072.
For V21E, the abundance fitness was 0.063 ± 0.081.
With V21G the abundance fitness was -0.307 ± 0.057.
Work on V21F yielded an abundance fitness of 0.041 ± 0.12.
Work on V21I yielded an abundance fitness of -0.034 ± 0.098.
V21W showed an abundance fitness of -0.241 ± 0.075.
V21M showed an abundance fitness of -0.517 ± 0.12.
With V21S the abundance fitness was -0.165 ± 0.063.
V21A gave an abundance fitness of 0.097 ± 0.058.
V21H gave an abundance fitness of -0.232 ± 0.13.
In the case of V21P, the abundance fitness is reported as -0.322 ± 0.056.
Work on V21Y yielded an abundance fitness of -0.162 ± 0.063.
In the case of V21L, the abundance fitness is reported as 0.026 ± 0.043.
Work on V21T yielded an abundance fitness of 0.081 ± 0.058.
With G23E the abundance fitness was -0.801 ± 0.12.
G23S gave an abundance fitness of -0.79 ± 0.052.
With G23M the abundance fitness was -0.9 ± 0.17.
With G23A the abundance fitness was -1.1 ± 0.083.
Work on G23W yielded an abundance fitness of -0.8 ± 0.052.
Variant G23Q has an abundance fitness of -1.34 ± 0.1.
Work on G23P yielded an abundance fitness of -0.958 ± 0.14.
Variant G23R has an abundance fitness of -0.56 ± 0.048.
Variant G23C has an abundance fitness of -1.08 ± 0.21.
For G23H, the abundance fitness was -0.822 ± 0.26.
G23N gave an abundance fitness of -0.822 ± 0.14.
For G23F, the abundance fitness was -0.826 ± 0.3.
For G23V, the abundance fitness was -1.2 ± 0.11.
Work on G23L yielded an abundance fitness of -1.13 ± 0.059.
G23K showed an abundance fitness of -0.762 ± 0.079.
Variant G23D has an abundance fitness of -0.884 ± 0.093.
Work on L10I yielded an abundance fitness of -0.148 ± 0.15.
With L10W the abundance fitness was -0.553 ± 0.068.
Work on L10N yielded an abundance fitness of -0.574 ± 0.099.
L10C showed an abundance fitness of -0.37 ± 0.1.
L10T gave an abundance fitness of -0.608 ± 0.096.
L10H gave an abundance fitness of -0.751 ± 0.26.
L10S gave an abundance fitness of -0.382 ± 0.069.
L10E gave an abundance fitness of -0.654 ± 0.081.
In the case of L10M, the abundance fitness is reported as -0.286 ± 0.076.
In the case of L10Q, the abundance fitness is reported as -0.296 ± 0.046.
With L10F the abundance fitness was -0.345 ± 0.095.
Work on L10R yielded an abundance fitness of -0.626 ± 0.066.
Variant L10V has an abundance fitness of -0.221 ± 0.054.
L10D showed an abundance fitness of -0.705 ± 0.16.
L10A showed an abundance fitness of -0.322 ± 0.072.
In the case of L10G, the abundance fitness is reported as -0.574 ± 0.055.
Work on L10Y yielded an abundance fitness of -0.571 ± 0.23.
For L10P, the abundance fitness was -0.385 ± 0.1.
With L10K the abundance fitness was -0.668 ± 0.2.
E15C showed an abundance fitness of -0.794 ± 0.14.
Variant E15A has an abundance fitness of -0.341 ± 0.057.
For E15L, the abundance fitness was -0.55 ± 0.055.
Work on E15Q yielded an abundance fitness of -0.229 ± 0.086.
For E15M, the abundance fitness was -0.262 ± 0.079.
Work on E15F yielded an abundance fitness of -0.764 ± 0.13.
With E15W the abundance fitness was -0.856 ± 0.056.
In the case of E15T, the abundance fitness is reported as -0.32 ± 0.085.
E15I showed an abundance fitness of -0.733 ± 0.18.
E15H showed an abundance fitness of -0.393 ± 0.23.
Variant E15K has an abundance fitness of -0.328 ± 0.1.
E15Y showed an abundance fitness of -0.46 ± 0.23.
Work on E15N yielded an abundance fitness of -0.449 ± 0.14.
Work on E15R yielded an abundance fitness of -0.38 ± 0.051.
Y22F showed an abundance fitness of -0.122 ± 0.06.
For Y22C, the abundance fitness was -0.061 ± 0.055.
For Y22V, the abundance fitness was -0.051 ± 0.063.
Y22Q showed an abundance fitness of -0.156 ± 0.11.
For Y22H, the abundance fitness was 0.1 ± 0.11.
Y22D gave an abundance fitness of -0.078 ± 0.069.
Variant Y22R has an abundance fitness of 0.056 ± 0.042.
In the case of Y22N, the abundance fitness is reported as -0.199 ± 0.12.
Y22W gave an abundance fitness of -0.186 ± 0.077.
Work on Y22T yielded an abundance fitness of -0.159 ± 0.091.
Variant Y22K has an abundance fitness of 0.082 ± 0.055.
For Y22E, the abundance fitness was -0.004 ± 0.06.
Y22I gave an abundance fitness of -0.162 ± 0.092.
Y22S gave an abundance fitness of -0.035 ± 0.043.
In the case of Y22A, the abundance fitness is reported as -0.041 ± 0.068.
With Y22G the abundance fitness was -0.027 ± 0.051.
Variant Y22P has an abundance fitness of -0.24 ± 0.094.
Variant Y22M has an abundance fitness of -0.378 ± 0.099.
In the case of E9A, the abundance fitness is reported as 0.105 ± 0.044.
For E9R, the abundance fitness was -0.179 ± 0.044.
With E9I the abundance fitness was -0.312 ± 0.13.
Work on E9F yielded an abundance fitness of -0.441 ± 0.059.
With E9W the abundance fitness was -0.497 ± 0.089.
Variant E9V has an abundance fitness of -0.126 ± 0.061.
For E9L, the abundance fitness was -0.223 ± 0.058.
For E9H, the abundance fitness was -0.095 ± 0.1.
E9S gave an abundance fitness of -0.103 ± 0.045.
In the case of E9D, the abundance fitness is reported as -0.017 ± 0.1.
For E9Q, the abundance fitness was -0.137 ± 0.1.
E9K showed an abundance fitness of -0.078 ± 0.057.
In the case of E9T, the abundance fitness is reported as -0.102 ± 0.051.
In the case of E9M, the abundance fitness is reported as -0.079 ± 0.073.
Variant E9C has an abundance fitness of -0.149 ± 0.072.
P11V gave an abundance fitness of -0.671 ± 0.083.
With P11E the abundance fitness was -0.377 ± 0.088.
For P11N, the abundance fitness was -0.728 ± 0.14.
For P11I, the abundance fitness was -0.424 ± 0.12.
P11H gave an abundance fitness of -0.554 ± 0.17.
P11R showed an abundance fitness of -0.494 ± 0.047.
P11L showed an abundance fitness of -0.35 ± 0.058.
Variant P11K has an abundance fitness of -0.153 ± 0.092.
Variant P11F has an abundance fitness of -0.515 ± 0.072.
P11G showed an abundance fitness of -0.268 ± 0.043.
P11M gave an abundance fitness of -0.185 ± 0.089.
With P11S the abundance fitness was -0.417 ± 0.039.
With P11D the abundance fitness was -0.382 ± 0.11.
With P11W the abundance fitness was -0.519 ± 0.088.
P11A showed an abundance fitness of -0.367 ± 0.045.
P11C gave an abundance fitness of -0.249 ± 0.095.
In the case of P11T, the abundance fitness is reported as -0.194 ± 0.082.
P11Q gave an abundance fitness of -0.38 ± 0.059.
